Assay results reported in patent US20080299072A1 (LABORATOIRES SERONO, published 2008).

T1: CCR1 (UniProt P32246 1-355, limits assumed)
T1 construct: whole, on cells; Membrane preparation of CHO transfectants; also called CCR1-expressing CHO membranes
T1 sequence (looked up): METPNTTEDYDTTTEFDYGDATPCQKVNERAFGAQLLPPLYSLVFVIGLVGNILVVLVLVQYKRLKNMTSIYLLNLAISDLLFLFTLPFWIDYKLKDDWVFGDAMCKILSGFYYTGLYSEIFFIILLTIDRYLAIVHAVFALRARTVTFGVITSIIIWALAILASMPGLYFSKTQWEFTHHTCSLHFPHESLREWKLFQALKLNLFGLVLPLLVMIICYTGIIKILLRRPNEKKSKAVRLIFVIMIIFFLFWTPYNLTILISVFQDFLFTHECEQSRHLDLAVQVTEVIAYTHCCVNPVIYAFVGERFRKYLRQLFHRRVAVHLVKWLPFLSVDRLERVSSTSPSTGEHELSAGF

B1: Met-RANTES (ligand)
chain: MSPYSSDTTPCCFAYIARPLPRAHIKEYFYTSGKCSNPAVVFVTRKNRQVCANPEKKWVREYINSLEMS
notes: The build (Met + mature RANTES) comes from the background description and the name
B2: Mature wildtype (wt) human RANTES (ligand)
chain: SPYSSDTTPCCFAYIARPLPRAHIKEYFYTSGKCSNPAVVFVTRKNRQVCANPEKKWVREYINSLEMS
notes: The mature form was used; also called WT RANTES; CCL5
B3: S1C-5 kDaPEG-RANTES (ligand)
chain: C(mPEG‑MAL 5 kDa)PYSSDTTPCCFAYIARPLPRAHIKEYFYTSGKCSNPAVVFVTRKNRQVCANPEKKWVREYINSLEMS
notes: Expressed without a leader; also called S1C-5 kDa-RANTES
B4: S4C-5 kDaPEG-RANTES (ligand)
chain: SPYC(mPEG‑MAL 5 kDa)SDTTPCCFAYIARPLPRAHIKEYFYTSGKCSNPAVVFVTRKNRQVCANPEKKWVREYINSLEMS
notes: This is probably a printing error; also called S4C-5 kDa-RANTES
B5: PEG-2 kDa-RANTES (ligand)
chain: {mPEG‑ButyrALD 2 kDa}-SPYSSDTTPCCFAYIARPLPRAHIKEYFYTSGKCSNPAVVFVTRKNRQVCANPEKKWVREYINSLEMS
notes: also called N-terminal PEGylated wt RANTES (2 kDa)
B6: PEG-5 kDa-RANTES (ligand)
chain: {mPEG‑ButyrALD 5 kDa}-SPYSSDTTPCCFAYIARPLPRAHIKEYFYTSGKCSNPAVVFVTRKNRQVCANPEKKWVREYINSLEMS
notes: also called N-terminal PEGylated wt RANTES (5 kDa)
B7: S5C-5 kDaPEG-RANTES (ligand)
chain: SPYSC(mPEG‑MAL 5 kDa)DTTPCCFAYIARPLPRAHIKEYFYTSGKCSNPAVVFVTRKNRQVCANPEKKWVREYINSLEMS
notes: also called S5C-5 kDa-RANTES

target: T1, CCR1; test: competition SPA, displacement of 125I-MIP-1α from CCR1 CHO membranes
Procedure: (§1) The assay was carried out on membranes isolated from CHO transfectants expressing CCR1 and CCR5 from Invitrogen® using a scintillation proximity assay (Alouani, 2000). The unlabelled chemokines were prepared in triplicate by serial dilution in the range of 10⁻⁶ to 10⁻¹² M in 50 mM HEPES pH 7.5, containing 1 mM CaCl₂, 5 mM MgCl₂ and 0.5% bovine serum albumin (binding buffer). Wheatgerm scintillation proximity assay beads (Amersham®) were solubilized at 50 mg/ml in PBS, diluted to 10 mg/ml in binding buffer and put at 250 μg/well. Membranes were diluted to 80 μg/ml in binding buffer and put at 2 μg/well in the assay plates. ¹²⁵I-MIP-1α (Amersham®) was put at 0.1 nM/well and finally unlabelled chemokine was added into the plate. The plates were incubated for 3 h at room temperature with agitation and radioactivity was read with a Wallac counter.

Binder | IC50 [nM]
B1 | 73
B2 | 23.3
B3 | 167
B4 | 84
B5 | 43
B6 | 50

target: T2, CCR5 (UniProt P51681 1-352, limits assumed); test: competition SPA, displacement of 125I-MIP-1α from CCR5 CHO membranes
T2 construct: whole, on cells; L1.2/CCR5 cells for chemotaxis; also called CCR5-expressing CHO membranes; L1.2/CCR5 transfectants
Procedure: as §1

T2 sequence (P51681 whole entry): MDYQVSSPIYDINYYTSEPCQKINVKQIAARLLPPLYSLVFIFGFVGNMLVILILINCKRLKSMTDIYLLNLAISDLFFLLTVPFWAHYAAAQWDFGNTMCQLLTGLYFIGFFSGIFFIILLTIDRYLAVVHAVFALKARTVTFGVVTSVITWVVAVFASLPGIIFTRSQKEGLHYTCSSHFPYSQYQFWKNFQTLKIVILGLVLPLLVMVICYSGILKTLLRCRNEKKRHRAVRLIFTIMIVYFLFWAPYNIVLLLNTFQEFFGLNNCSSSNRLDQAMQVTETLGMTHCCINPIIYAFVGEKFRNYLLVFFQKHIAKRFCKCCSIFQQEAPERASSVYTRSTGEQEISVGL

Binder | IC50 [nM]
B1 | 15.2
B3 | 41
B4 | 40
B7 | 902

target: T1, CCR1; test: competition SPA, displacement of 125I-MIP-1α from CCR1 CHO membranes (FIG. 1)
Procedure: FIG. 1: Equilibrium competition binding to CCR1. The binding assay was performed by monitoring the displacement of [¹²⁵I]-MIP-1α from CCR1-expressing CHO membranes. A) PEGylated Ser/Cys variants (S1C, S4C). Added as competitors were: RANTES (□), Met-RANTES (X), S1C-5 kDaPEG-RANTES (▪), S4C-5 kDaPEG-RANTES. B) N-terminal PEGylated wt RANTES variants. Added as competitors were: RANTES (□), Met-RANTES (X), PEG-2 kDa-RANTES (▴), PEG-5 kDa-RANTES (▾).
as §1

Binder | IC50 [nM]
B1 | 72
B2 | 69
B3 | 272
B4 | 83
B5 | 41
B6 | 47

target: T2, CCR5; test: competition SPA, displacement of 125I-MIP-1α from CCR5 CHO membranes (FIG. 2)
Procedure: FIG. 2: Equilibrium competition binding to CCR5. The binding assay was performed by monitoring the displacement of [¹²⁵I]-MIP-1α from CCR5-expressing CHO membranes. A) PEGylated Ser/Cys variants. Added as competitors were: RANTES (□), Met-RANTES (x), S1C-5 kDaPEG-RANTES (▪), S4C-5 kDaPEG-RANTES, S5C-5 kDaPEG-RANTES (□). B) N-terminal PEGylated wt RANTES variants. Added as competitors were RANTES (□), Met-RANTES (x), PEG-2 kDa-RANTES (▴), PEG-5 kDa-RANTES (▾).
as §1

Binder | IC50 [nM]
B1 | 15.5
B3 | 82.5
B4 | 45.4
